How the values were obtained:
[1] = target: the molecule itself; experiment: SAXS Guinier Rg, model with 1x N-glycosylation
[2] = target: the molecule itself; experiment: SAXS; concentration series 0.27-9.15 mg/mL, 3 to 5% glycerol added; KD by nonlinear regression of experimental Rg^2 versus concentration (Equation 4) with theoretical Rg of monomer and dimer for zero to two N-glycosylations; dimer to monomers
[3] = target: the molecule itself; experiment: static light scattering; DynaPro NanoStar, 20 °C, quartz cuvette, several protein concentrations; molecular mass increased with protein concentration; no significant change of hydrodynamic radii and molecular mass in the presence of Ca2+; monomer to dimer

B1: PTX-like domain of the human ADGRG4 (residues 1-240) (domain or fragment, UniProt Q8IZF6-1 28-240, looked up)
chain: LKGKKLDFFGRGDTYVSLIDTIPELSRFTACIDLVFMDDNSRYWMAFSYITNNALLGREDIDLGLAGDHQQLILYRLGKTFSIRHHLASFQWHTICLIWDGVKGKLELFLNKERILEVTDQPHNLTPHGTLFLGHFLKNESSEVKSMMRSFPGSLYYFQLWDHILENEEFMKCLDGNIVSWEEDVWLVNKIIPTVDRTLRCFVPENMTIQEKS
modifications: N-glycosylated (heterogeneous; putative N-glycosylation sites N166 and N233)
notes: signal peptide in the construct: human ADGRG4 (GPR112) residues 1-240, UniProt Q8IZF6-1; residues 1 to 25 are a signal peptide and are not present in the secreted protein; residues 26-162 and 176-231 are resolved in the crystal structure; Expected monomer mass printed as 30.5 kDa; also called G4-PTX; ADGRG4-PTX
Kd [1]: 20 µM
Kd [2]: 7 to 32 µM
stoichiometry N [3]: 2

Source: publication PMC10687090, “The dimerized pentraxin-like domain of the adhesion G protein–coupled receptor 112 (ADGRG4) suggests function in sensing mechanical forces” (The Journal of Biological Chemistry, 2023)
